Publication PMC6351562, “Structure, function, and inhibition of drug reactivating human gut microbial β-glucuronidases” (Scientific Reports, 2019)
“And” between values parts separate entries of the source, which are not always exact repeats. Equal values may be shown once. Marks after values point to notes of the source that are not given here.

Columns and labels:
[1] = substrate: O=C(O)[C@H]1O[C@@H](Oc2ccc([N+](=O)[O-])cc2)[C@H](O)[C@@H](O)[C@@H]1O; assay: purified protein, by the assay type; conditions: other: pNPG as substrate
[2] = substrate: O=C(O)[C@H]1O[C@@H](Oc2ccc([N+](=O)[O-])cc2)[C@H](O)[C@@H](O)[C@@H]1O; assay: purified protein, by the assay type; assay type: biochemical, Ruminococcus gnavus; conditions: other: pNPG as substrate, optimal pH 6.5, apparent value estimated at low pNPG concentrations, 37.0 °C

B1: Eubacterium eligens GUS (EeGUS) (Lachnospira eligens ATCC 27750) (protein)
chain: MLYPVLTQSRLLSDLSGVWDFKLDNGKGFEEKWYEKPLKDADTMPVPASYNDLKEGTDFRDHYGWVFYQRNISVPEYVKSQRIVLRCAAVTHYAMIYLNGKLICEHKGGFLPFEVELNDDLQDGDNLLTIAVNNVIDYTTLPVGGKANMMSGMMGGMGAGASDKPQNNPNFDFFNYCGITRPVKIYTTPETYINDITVTADIDFTKEEPSAVLNYNVEIKGKDYNNITCKVELFDEEGTKLSETEGSEGTFEISNVRLWQPLNAYLYKIKVTAGQDVYTLPYGVRSVRVDGTKFLINEKPFYFKGYGKHEDTFPNGRGINLPMNTKDISIMKWQHANSFRTSHYPYSEEMMRLCDEEGIVVIDETTAVGVNLQFGGGANFGGERIGTFDKEHGVQTQEHHKDVIRDLISRDKNHACVVMWSIANEPDSAAEGAYDYFKPLYDLARELDPQKRPCTLVSVQGTTADTDCSSQLSDVICLNRYYGWYFGGPDLEVSEIGLRKELSDWGKLGKPVMFTEYGADTVSGLHDTTSVMYTEEYQVEYYEMNNKVFDEFDFVVGEQAWNFADFATSQSLLRVQGNKKGLFTRDRKPKMVAHYFRNRWSTIPEFGYKTK
- Km ([1]; optimal pH 6.5, 37 °C): 223 ± 8 µM
- kcat ([1]; optimal pH 6.5, 37 °C): 120 ± 8 s⁻¹
- kcat/Km ([1]; optimal pH 6.5, 37 °C): 540000 ± 20000 M⁻¹ s⁻¹

B2: Bacteroides uniformis GUS (BuGUS) (Bacteroides uniformis str. 3978 T3 ii) (protein)
chain: QRQTQTINDSWKFLKGECTAAADSAFDDSKWTSIHLPHTWNTDAYTEKDYYRGTGWYRRQLTLPQGWKEKQIILRLDAAGKSATIYINGKNVGEHAGGYTACSFNITPFLSFDTPNTLAVCVDNARQDIAPISGDFTFFGGIYRDVWLTAVPNQHFNLTNHGSDGLFISTPQVSEEQATLSIRGEVKNDAPEKATLELTHTIYRPDGTLLQTLKKNIQLKAGETYAFSNEATPVLKPELWTPETPRLYRVETTLRNRKTKTLLDQSNHYTAFRWFRFDGDEGFFLNGKPYKLRGICRHQDQKPIGPALTDEMHRRDFLLMKEMGANFIRISHYPQDDALLEMCDKLGMLAWEEIPIIDIVPNTPGYGDNCERNLREMIRQHYNHPSIITWGYMNEILLVTQRKYKTEAELKPVLERTLALANRLERVLKEEDSTRISTMAFHGSNSYNETGLSKITDIVGWNLYQGWYGGDLTGFEKFLAQQHQNHPTHPMIVSEYGAGSDKRLHSLHPRAFDFSIEYQQKYLEHYLPVLEDTPYICGGTHWNFIDFSSALRDESMPRINNKGLVYADRTPKDVYHYYQAAWRKDIPVLHIASRDWTDRAGVQQGNAPVYLPVKIYTNLSEVELFIDGISLGKQKTENYTATFEVPFSNRNPFLFAQGNYQGKTVQDGLRINFTPIPACLDANNLKGLELAVNVGSQCFFTSDESQLTWLPDQPYAAGSWGYIGGKEGTAQTEIQNTADGPLFQTLRNEIEGYRFDAPQGVYEIELLFTDIFRRNAGIAYQLDRNGQQENRESTFGISINGEVVEESLSPCKESGYFRALRKKYYITNDKEYIDIRFHSTSGTCFLNGIKLRNIY
- Km ([1]; optimal pH 5.5, 37 °C): 540 ± 60 µM
- kcat ([1]; optimal pH 5.5, 37 °C): 37 ± 2 s⁻¹
- kcat/Km ([1]; optimal pH 5.5, 37 °C): 71000 ± 6000 M⁻¹ s⁻¹

B3: Streptococcus agalactiae GUS (SaGUS) (Streptococcus agalactiae 2603V/R) (protein)
chain: MLYPLLTKTRNTYDLGGIWNFKLGEHNPNELLPSDEVMVIPTSFNDLMVSKEKRDYIGDFWYEKVIEVPKVSEDEEMVLRFGSVTHQAKIYVDGVLVGEHKGGFTPFEVLVPECKYNNEKIKVSICANNVLDYTTLPVGNYSEIIQEDGSIKKKVRENFDFFNYAGVHRPLKLMIRPKNHIFDITITSRLSDDLQSADLHFLVETNQKVDEVRISVFDEDNKLVGETKDSRLFLSDVHLWEVLNAYLYTARVEIFVDNQLQDVYEENFGLREIEVTNGQFLLNRKPIYFKGFGKHEDTFINGRGLNEAANLMDLNLLKDMGANSFRTSHYPYSEEMMRLADRMGVLVIDEVPAVGLFQNFNASLDLSPKDNGTWNLMQTKAAHEQAIQELVKRDKNHPSVVMWVVANEPASHEAGAHDYFEPLVKLYKDLDPQKRPVTLVNILMATPDRDQVMDLVDVVCLNRYYGWYVDHGDLTNAEVGIRKELLEWQDKFPDKPIIITEYGADTLPGLHSTWNIPYTEEFQCDFYEMSHRVFDGIPNLVGEQVWNFADFETNLMILRVQGNHKGLFSRNRQPKQVVKEFKKRWMTIPHYHNKKNSVK
- Km ([1]; optimal pH 6.5, 37 °C): 170 ± 10 µM
- kcat ([1]; optimal pH 6.5, 37 °C): 120 s⁻¹ and 122 s⁻¹
- kcat/Km ([1]; optimal pH 6.5, 37 °C): 720000 ± 30000 M⁻¹ s⁻¹

B4: Ruminococcus gnavus GUS (RgGUS) (Mediterraneibacter gnavus) (protein)
chain: MLEYSELYPIQNGHRMMQSLDGMWKFQFDPEEIGEKSGWENGLPAPVSMPVPSSFADFFTDHKERDYCGDFWYETEFYLPAEWRNKKIWLRFGSITHRGTVYCNGMEITSHEGGFLPVLADISTVAKPGQVNQVVVKINNELNETSLPCGATKILNNGRKLAKPYFDFFNYSGLQRSVWVIALPEESVKDYSVDYELCGTDALVKYEVVTTGEHPVIVRLLDAEGELVAETEGKEGILQVANAHLWEVRNAYLYQIVILITDGNGVLDEYREKIGIRTVRIEGTQILLNDRPVYLKGFGKHEDFSILGRGFHWGIVKRDFECLKWTNANCFRTSHYPYAEEWYQFADEEGFLIIDEVPAVGMMRSTRNFVAAGSGNYTYFFEALTVPELLKSHIADTEEMITRDKNHPSVIAWSLFNEPETITDYAYEYFKEVFAAAETYDFQSRPMTGAFEKNSKPELCKCYPLCDFICLNRYYGWYISGGPEIEEAEELFRDEMDRWKAKELNVPFVFTEFGTDTMAGLHKLPSIMWSEEYQKEYLEMNFRVFDSYEFVQGELAWNFADFQTTEGIMRVDGNHKGVFTRDRQPKAAAVVFKDRWEKKNELF
- Km [2]: 1.4 ± 0.2^b mM
- kcat [2]: 2.8 ± 0.3 s⁻¹
- kcat/Km [2]: 2000 ± 100 M⁻¹ s⁻¹

B5: Lactobacillus rhamnosus GUS (LrGUS) (Lacticaseibacillus rhamnosus) (protein)
chain: METSLLYPVTNDQRTDQKLDGLWQFKFDEAGEGEKSGWETGFHDGVSMPVPASFNDFFTDKASREYTGDFWYSRNFFVPSAAKGKALFLRFDAVTHRATIFVNGKEIRTHEGGFLPFAADISEAVKYGAENTVVVKGNNELSREALPAGDTITLRNGKKMVRPFFDFYNYSGLNRSVHLLSLPQERVLDYTTTFALAGNDATVNYTVETNGDAPVTVSLADADGQVVATAQGKQGALQVQNAHLWQVRNAYLYTLTIQLGDDTQTPLDTYTDRIGIRTIKISGTDILVNDKPIYLKGFGRHEDSPFAGRAFDLNVEKKDFALMKWIGANSFRTSHYPYDEQVYKIADEEGFLLTDEVPAVGFKMAAAAFLGGLNQSFFKGPWLKKLHERHIDQIRDLIKRDKNHPSVLAWSLFNEPDTIDENAVPYFKQIFDESKDLDPQGRPRTFTLSEDDTIETSKVLDFPDFYMLNRYPGWYHFGGYQISDGEAGLRDEMDKWQKAGVKKPVVFTEFGADTEAGLHKLPSVMWTEEYQVEVLKMFSRVFDDYDFIKGEQVWNLADFQTVEGNMRVNGNKKGIFTRDRQPKAAAFFYHDRWNKLPLDYKAK
- Km ([1]; optimal pH 4.5, 37 °C): 1500 ± 100 µM
- kcat ([1]; optimal pH 4.5, 37 °C): 10 ± 0.7 s⁻¹
- kcat/Km ([1]; optimal pH 4.5, 37 °C): 6700 ± 300 M⁻¹ s⁻¹

B6: Bacteroides dorei GUS (BdGUS) (Phocaeicola dorei CL02T12C06) (protein)
chain: SEISITDSWKYKAENDERFSSMDWNDSDWVTVDLPHTWNAGDVIDEQRGYRRGISWYRKKLFIPSEARDKKITLRFDGVASKADVYLNGKLLKTHLGAYTAFGVDITDICEVGKENLLAVKVDNSSSLGEILPPVSGDFSIFGGIYRRVFLQWTEKVHFVTEPYAAVPVRIQTPEVSVSEASMQIVAFLKNDFTDTKHVHVNVFLCDEMNRIVKEKQLKLKLIPGRKYPISTSVGRIENPHLWSPELPYLYTVKVQVCDAKNGEMYQEVISPVGFRWFSVDKTGFYLNGKYLKLRGAARHQDYAGLGTAIPVEMNRRDMRLLKEMGANFVRISHYPQDPEIYRACDELGLIVWSEICVVNEVRKNAAFAHNCKEMLKEMILQNYNHPSVVLWGAMNELWDYHKQAIALARELEALKKELDPYRLSCVAFHAFTWEKPYTQSSKEMFSISDVNGVNVYESWYQGDSATIAPMFDKFCSYSTAKPRFLSEFGAGSDERIHSYTPRTFDFTPEFQLDFNRRYINEMEKRPDYIGYSIWNLVDFQVDGRGDSKPNLNQKGMLTEDRRKKEIYYYCQARWSDIPMIHIAGADWTKRVEICDDSINVRKISVFSNQKTVELIHNGKSLGVREVVNGEAVFAVPFINGENLLDARSGALSDRLKIQMKLLSSRLTDSDVLLDGLCINLGQEHCYFIDPQLQEIWIPDKPYTKGSWGYMDGKPFNSWPGSSHDGVRYGVGADIKNTFLEPLFQTFLIGTTCYRLDVPDGVYEIGFYFTEPFSKDERKNIVRTGVSAEGQRVFDVSVNGEKLIDSLNLADSYGEQTAVVKTLVVNVRNHEGLEILLSPQKGQGVISGLKVKKIR
- Km ([1]; optimal pH 6.0, 37 °C): 1400 ± 100 µM
- kcat ([1]; optimal pH 6.0, 37 °C): 7.5 ± 0.4 s⁻¹
- kcat/Km ([1]; optimal pH 6.0, 37 °C): 5200 ± 500 M⁻¹ s⁻¹

B7: Faecalibacterium prausnitzii GUS (FpGUS) (Faecalibacterium duncaniae) (protein)
chain: MNRSLLYPRATTTRRLIGLDGMWRFSFDPESKGVEAGWALDLPSSLSMPVPASFCDLFTDKASREYCGDFWYETSFFVPAEWSGWDIVLRFGSVTHRARVFVNGVEVAQHEGGFLPFDATVTNIVRYNQFNKLSVLANNELSETMLPAGTTCTLADGRKIAAPYFDFYNYAGIHRPVWLMALPKERVLDYSTRYRLTETGAEIDYTVSTNGPHPVTVELYDGTTRVAESSGTTGTLVVKNARLWNVHAAYLYDLVIRIHEGSAVVDEYLDRIGIRTFEIRHGRFLLNGSPVYLRGFGRHEDADIRGRGLDLPTVKRDFELMKWIGANCFRTSHYPYAEEIYQMADEEGFLIIDEVPAVGFMQSTANFLAANQGNGRQQGFFEKETTPALLKNHKAALTDMIDRDKNHPSVIAWSLLNEPQCTSAGTEEYFKPLFELARRLDPQKRPRTYTVLMTSLPDTSKGQRFADFVSLNRYYGWYVLGGAGLADAEAAFHHEMDGWAKVLHGRPLIFTEYGTDNLSGAHKLPSVMWSAEYQNEYLEMTHAVFDHYDFVQGELVWNFADFQTTEGILRVDGNKKGIFTRQRQPKDAAYLFRKRWTTLPVDFKKRKK
- Km ([1]; optimal pH 6.0, 37 °C): 2200 ± 300 µM
- kcat ([1]; optimal pH 6.0, 37 °C): 58 ± 4 s⁻¹
- kcat/Km ([1]; optimal pH 6.0, 37 °C): 27000 ± 2000 M⁻¹ s⁻¹
